Test results reported in publication PMC12118636.
pKd: −log10 of the molar value. Where two headings read alike, the source gives them in different places.

What was measured:
[1] = biological target: hNaV1.9 IQ domain peptide (human); assay: ITC
[2] = biological target: hNaV1.9 IQ domain peptide (human); assay: ITC; remark: listed apart in the source

**Q.** Which results are given for “Human calmodulin (from UniProt P0DP23 1-149) (natural protein)”?
**A.** pKd [1]: 4.43; pKd [2]: 3.32
